The assay deals with purified full-length human hexahistidine-tagged 14-3-3η (human) (UniProt Q04917). As to the kind of experiment: pull-down.
UniProt Q04917, sequence (Q04917 whole entry): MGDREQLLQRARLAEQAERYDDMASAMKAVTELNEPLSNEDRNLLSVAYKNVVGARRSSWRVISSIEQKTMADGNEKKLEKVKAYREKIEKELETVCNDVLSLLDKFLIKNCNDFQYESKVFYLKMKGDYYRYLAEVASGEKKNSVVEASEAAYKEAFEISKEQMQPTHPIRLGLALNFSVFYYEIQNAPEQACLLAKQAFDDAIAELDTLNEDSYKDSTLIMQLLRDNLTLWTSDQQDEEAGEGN

Substance “in vitro translated 35S-labeled androgen receptor (AR) (from UniProt P10275 1-920)” had a densitometry of bound [35S] AR of 15000.

The record behind these values is article PMC2795092.
